Laboratory results taken from patent publication US20060030524A1, “Treatment of systemic lupus erythematosus by down-regulating the autoimmune response to autoantigens” (Yeda Research and Development Co. Ltd., priority 1998, published 2006).

Experiments:
[1] = test system: single-stranded calf thymus DNA; assay: Anti-DNA ELISA of sera of Ab1-immunized mice; type: in vivo; details: sera of BALB/c mice immunized with the Ab1
Experimental: (§1) For anti-DNA ELISA, a secondary antibody conjugated to horseradish peroxidase, and as substrate 1 mg/ml ABTS in 0.2 M citric acid, 0.2 M Na2HP04, and 3% H202 (all from Sigma) was used. The test antigens used were (Fab) 2 fragments of Ab2 anti-PAb-421, which were prepared as described (Harlow et al, 1988), recombinant p53, the p53 peptide epitope of PAb-421, histones or, after pre-coating with methylated BSA, calf thymus DNA (all from Sigma). All antibody titers are shown as the O. D. produced by the test sera at a dilution of 1:100. Dots represent individual sera, bars represent the median of each group.

recombinant p53 = target: T1, recombinant p53 (Mus musculus, UniProt P02340); assay: ELISA of sera of Ab1-immunized mice for Ab3 anti-p53 antibodies; type: in vivo
T1 construct: made in house; host or cells: E. coli BL21 (DE3)
Experimental: (§2) E. coli BL21 (DE3) cells were transformed with the T7 expression vector containing mouse p53 DNA (Shohat-Foord et al, 1991). P53 was purified as described (Wolkowicz et al, 1995). All peptides, including the p53 peptide epitope of PAb-421 ([…]) (residues 364-383 of SEQ ID NO:1) were prepared using an automated synthesizer (Abimed AMS 422; Langenfeld, Germany) according to the manufacturer. Peptide purity was tested by analytical reverse phase HPLC and mass spectroscopic analysis.
(§3) ELISA assays were conducted in 96-well Maxisorp plates (Nunc, Roskilde, Denmark), which were coated with 10 μg test antigen per ml in PBS. After washing and blocking with 1% BSA in PBS for one hour at 37° C., diluted test sera (0.1 ml per well) was added for one hour at 37° C., followed by one hour incubation with goat anti-mouse IgG Fc specific, or IgG-isotype specific secondary antibodies conjugated to alkaline phosphatase, diluted 1:5000 (Jackson, Philadelphia, Pa.). A substrate solution containing 0.6 mg/ml of p-nitrophenylphosphate (Sigma, Rehovot, Israel) in diethanolamine-H2O, pH 9.8, was added, and the plates were read at 405 nm.
To test whether immunization to Ab1 could induce Ab3, immunized mice were assayed for antibodies to p53. […] However, Ab1 antibodies PAb-246 and PAb-421 induced a stronger Ab3 anti-p53 response in the BALB/c strain than they did in the C57BL/6 strain.

[2] = target: T2, p53 peptide epitope of PAb-421 (364-383 of SEQ ID NO:1) (Mus musculus, UniProt P02340); assay: ELISA of sera of Ab1-immunized mice for Ab3 to the p53 peptide epitope of PAb-421; type: in vivo
T2 construct: made in house; host or cells: chemical synthesis (Abimed AMS 422)
Experimental: as §2
ELISA assays were conducted in 96-well Maxisorp plates (Nunc, Roskilde, Denmark), which were coated with 10 μg test antigen per ml in PBS. […] A substrate solution containing 0.6 mg/ml of p-nitrophenylphosphate (Sigma, Rehovot, Israel) in diethanolamine-H2O, pH 9.8, was added, and the plates were read at 405 nm.
Because the two mouse strains differed in their Ab1 response to PAb-421, it was conceivable that they also might differ in their Ab3 response to this Ab1 antibody. The specificity of the Ab3 response was analyzed by probing test sera for antibodies to the C-terminal peptide epitope of p53 that is recognized by the inducing PAb-421 (amino acids 364-383 of SEQ ID NO:1).

[3] = test system: p53-responsive element oligonucleotide; assay: Band shift assay of sera of Ab1-immunized mice; type: in vivo; details: sera of BALB/c mice immunized to the Ab1
[4] = test system: Ab2 of immunized C57BL/6 mice cross-reactive to PAb-246 and PAb-421; assay: Absorption of Ab2 cross-reactivity by preincubation with anti-p53 antibodies; type: binding; details: sera of immunized C57BL/6 mice preincubated with the antibody
Experimental: FIG. 2 is a graph showing cross-reactivity of C57BL/6 mouse Ab2 to PAb-246 and PAb-421. […] The mean percent inhibition (+SD) of the reactivity to PAb-246 or PAb-421 by preincubation is shown.
The Ab2 cross-reactivity of the C57BL/6 mice seemed to be limited to PAb-246 and PAb-421. To confirm the Ab2 cross-reactivity between PAb-246 and PAb-421, tests were conducted to determine whether preincubation with either of the anti-p53 antibodies could absorb out the cross-reactivity. […] The mean percent inhibition (+SD) of the reactivity to PAb-246 or PAb-421 by preincubation is shown.

[5] = test system: (Fab)2 fragments of the Ab1 anti-p53 antibodies; assay: ELISA of sera of Ab1-immunized mice for Ab2 anti-idiotypic antibodies; type: in vivo
Experimental: as §3
as §1, with “Dots represent individual sera, bars represent the median of each group.” left out
To learn whether both strains of mice responded to the Ab1 immunization by making Ab2 anti-idiotypic antibodies, the reactivity of their sera to the (Fab)2 fragment of the Ab1 anti-p53 antibodies was determined.

BALB/c and C57BL/6 mice = assay: Induction of SLE-like disease by Ab1 immunization (proteinuria, histology, leukocyte counts); type: in vivo
Source text: Paraffin sections of tissue samples were either stained with hematoxylin and eosin, or immunostained with a peroxidase-labeled anti-mouse-IgG antibody (Jackson, Philadelphia, Pa.) and DAB (Sigma) according to the manufacturer's instructions.
Proteinuria was detected with Albustix strips (Bayer, Slough, UK). Leukocytes were counted from heparinized blood following 10-fold dilution in 1% acetic acid.

histones = assay: ELISA of sera of Ab1-immunized mice for anti-histone antibodies; type: in vivo; details: mice immunized with Ab1, bled two weeks after second boost
Experimental: as §3, §1

[6] = test system: native, histone-free DNA of Crithidia luciliae; assay: Crithidia luciliae assay of sera of Ab1-immunized mice; type: in vivo; details: sera of BALB/c mice immunized to the Ab1
Experimental: Slides with Crithidia were purchased from Immco (Buffalo, N.Y.) and incubated with the test sera according to the manufacturer's protocol.
Test sera were then examined for binding to DNA using the Crithidia luciliae assay, which detects antibodies—to native, histone-free DNA exposed at the base of the Crithidia flagellum. Both BALB/c and C57BL/6 mice immunized to […] or PAb-248 were negative for anti-DNA antibodies in the Crithidia assay, as were C57BL/6 mice immunized to PAb-421. […] The finding of positive reactivity in the Crithidia assay correlates with the clinical disease seen in the BALB/c mice. The Crithidia luciliae assay is used clinically for its diagnostic specificity for lupus in humans (Aarden et al, 1975).

T1 sequence (P02340 whole entry): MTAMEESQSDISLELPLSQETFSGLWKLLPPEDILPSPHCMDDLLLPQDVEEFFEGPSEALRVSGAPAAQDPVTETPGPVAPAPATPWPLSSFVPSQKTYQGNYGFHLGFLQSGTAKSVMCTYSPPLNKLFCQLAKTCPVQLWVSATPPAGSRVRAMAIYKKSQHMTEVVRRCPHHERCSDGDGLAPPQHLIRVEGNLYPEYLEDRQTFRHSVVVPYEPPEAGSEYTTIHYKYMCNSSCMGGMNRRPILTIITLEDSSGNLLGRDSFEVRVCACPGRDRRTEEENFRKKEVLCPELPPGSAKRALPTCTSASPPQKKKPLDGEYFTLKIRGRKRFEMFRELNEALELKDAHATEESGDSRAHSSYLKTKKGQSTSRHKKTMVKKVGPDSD
T2 sequence (P02340 364-383 limits assumed): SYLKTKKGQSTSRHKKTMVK

B1: PAb-421: monoclonal antibody (Ab1) against the C-terminal DNA-binding domain of murine p53; VH SEQ ID NO:2, VL SEQ ID NO:3 (antibody, listed as Mus sp., V domains shown)
VH: QVKLQESGAELVRSGASVKLSCTASGFNIKDYYMHWVKQRPEQGLEWIGWIDPENGDTEYAPKFQGKATMTADTSSNTAYLQLSSLASEDTAVYYCNFYGDALDYWGQGTTVTVSS
VL: DIQLTQSPLTLSVTIGQPASISCKSSQSLLDSDGKTYLNWLLQRPGQSPKRLIYLVSKLDSGVPDRFTGSGSGTDFTLKINRVEAEDLGVYYCWQGTHSPLTFGAGTKLK
modifications: BINDING (26)..(35) Complementary Determining Region; BINDING (24)..(39) Complementary Determining Region
**Q.** B1 was tested. Which “anti-DNA reactivity to single stranded calf thymus DNA (FIG. 3)” value [1] did it give?
**A.** Its value is “High anti-DNA reactivity”.

**Q.** What about the “induction of Ab3 anti-p53 antibodies (FIG. 4A)” value (recombinant p53; BALB/c mice) of the same molecule?
**A.** Its value is “make anti-p53 antibodies”.

**Q.** And the “induction of Ab3 anti-p53 antibodies (FIG. 4A)” value (recombinant p53; C57BL/6 mice)?
**A.** Its value is “make anti-p53 antibodies”.

**Q.** What about the “Ab3 antibodies to the p53 peptide epitope of PAb-421 (FIG. 5)” value ([2]; BALB/c mice) of the same molecule?
**A.** Its value is “made antibodies to the peptide epitope of PAb-421”.

**Q.** And the “Ab3 antibodies to the p53 peptide epitope of PAb-421 (FIG. 5)” value ([2]; C57BL/6 mice)?
**A.** Its value is “did not make antibodies to the C-terminal p53 peptide”.

**Q.** What about the “anti-DNA Ab2 to the p53-responsive element (band shift)” value [3] of the same molecule?
**A.** Its value is “did not make such anti-DNA antibodies”.

**Q.** What about the “absorption of Ab2 cross-reactivity between PAb-246 and PAb-421 by preincubation (FIG. 2)” value [4] of the same molecule?
**A.** The value was “absorbed out significantly”.

**Q.** What about the “Ab2 anti-idiotypic response, specificity (FIG. 1)” value ([5]; BALB/c mice) of the same molecule?
**A.** Its value is “made antibodies specific to PAb-421”.

**Q.** And the “Ab2 anti-idiotypic response, specificity (FIG. 1)” value ([5]; C57BL/6 mice)?
**A.** Its value is “cross-reacted to both PAb-246 and PAb-421”.

**Q.** What about the “immunized mice that exhibited proteinuria” value (BALB/c and C57BL/6 mice; 80 BALB/c mice immunized with Ab1) of the same molecule?
**A.** The value was “about 95%”.

**Q.** What about the “development of lupus after Ab1 immunization” value (BALB/c and C57BL/6 mice; BALB/c mice) of the same molecule?
**A.** The value was “develop a lupus-like disease”.

**Q.** What about the “mice leukopenic (<4000 leukocytes per ml) and lymphopenic (<1200 lymphocyte per ml)” value (BALB/c and C57BL/6 mice; BALB/c mice immunized with Ab1) of the same molecule?
**A.** The value was “Seven out of ten”.

**Q.** What about the “development of lupus after Ab1 immunization” value (BALB/c and C57BL/6 mice; C57BL/6 mice) of the same molecule?
**A.** Its value is “did not develop disease”.

**Q.** What about the “mice that developed significant titers of anti-histone antibodies” value (histones) of the same molecule?
**A.** Its value is “About 30%”.

**Q.** What about the “anti-DNA antibodies in the Crithidia assay” value [6] of the same molecule?
**A.** The value was “produced anti-DNA antibodies detectable by the Crithidia assay”.
